Source: patent US20230110085A1

Key:
[1] = biological target: purified human IgM (#16-16-090713-M, Athens Research & Technology) (human); test: Western blot of DTT-reduced purified human IgM titrated 1250 to 4.8 ng/well
[2] = biological target: human IgG (IVIg, Gamunex) (human); test: cell-based or functional assay
[3] = biological target: purified human IgM (#16-16-090713-M, Athens Research & Technology) (human); test: cell-based or functional assay

Row | detection limit (lowest IgM amount with visible band) [1] [ng/well] | Substance | cleavage on SDS-PAGE (full cleavage) [2] [µg/mL] | cleavage on SDS-PAGE (to scIgG) [2] [µg/mL] | cleavage on SDS-PAGE [3] [µg/mL] | digestion on SDS-PAGE gel [3] [µg/mL]
1 | 19 | PE-conjugated donkey anti-human IgM (#IGM-PEC1, One Lambda) (antibody) | – | – | – | –
2 | – | imlifidase (IdeS), immunoglobulin G-degrading cysteine protease of S. pyogenes (enzyme) | 2 | 0.2 | > 200 | > 200
